B1: THAP1; numbered along this chain (parent)
chain: MVQSCSAYGCKNRYDKDKPVSFHKFPLTRPSLCKEWEAAVRRKNFKPTKYSSICSEHFTPDCFKRECNNKLLKENAVPTIFLCTEPHDKKEDLLEPQEQLPPPPLPPPVSQVDAAIGLLMPPLQTPVNLSVFCDHNYTVEDTMHQRKRIHQLEQQVEKLRKKLKTAQQRCRRQERQLEKLKEVVHFQKEKDDVSERGYVILPNDYFEIVEVPA

Variants of: B1
Test: THAP1 transcriptional activity (GFP+/GFP- enrichment relative to wild-type constructs) (ratio to WT); higher = more THAP1 activity (PSMB5 reporter activation)
Conditions: with PSMB5 promoter-GFP reporter
Procedure, shortened: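 In duplicate, a lentivirus-delivered library with every residue from 2–213 of human THAP1 changed to all 20 amino acids was introduced at MOI ~0.3 into THAP1-knockout HEK-293T cells carrying endogenous PSMB5 tagged by mClover3 knock-in. Five days on, BFP+ cells were binned as GFP-dim or GFP-bright, and Illumina sequencing of genomic DNA amplicons counted each variant. Activity is the bright/dim read fold change, averaged over replicates and scaled to the mean of wild-type synonymous constructs.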
MVQSCSAYGCKNRYDKDKPVSFHKFPLTRPSLCKEWEAAVRRKNFKPTKYSSICSEHFTPDCFKRECNNKLLKENAVPTIFLCTEPHDKKEDLLEPQEQLPPPPLPPPVSQVDAAIGLLMPPLQTPVNLSVFEDHNYTVEDTMHQRKRIHQLEQQVEKLRKKLKTAQQRCRRQERQLEKLKEVVHFQKEKDDVSERGYVILPNDYFEIVEVPA [C133E] gave a THAP1 transcriptional activity of 0.936.
In the case of MVQSCSAYGCKNRYDKDKPVSFHKFPLTRPSLCKEWEAAVRRKNFKPTKYSSICSEHFTPDCFKRECNNKLLKENAVPTIFLCTEPHDKKEDLLEPQEQLPPPPLPPPVSQVDAAIGLLMPPLQTPVNLSVFFDHNYTVEDTMHQRKRIHQLEQQVEKLRKKLKTAQQRCRRQERQLEKLKEVVHFQKEKDDVSERGYVILPNDYFEIVEVPA [C133F], the THAP1 transcriptional activity is reported as 0.613.
With MVQSCSAYGCKNRYDKDKPVSFHKFPLTRPSLCKEWEAAVRRKNFKPTKYSSICSEHFTPDCFKRECNNKLLKENAVPTIFLCTEPHDKKEDLLEPQEQLPPPPLPPPVSQVDAAIGLLMPPLQTPVNLSVFKDHNYTVEDTMHQRKRIHQLEQQVEKLRKKLKTAQQRCRRQERQLEKLKEVVHFQKEKDDVSERGYVILPNDYFEIVEVPA [C133K] the THAP1 transcriptional activity was 1.7.
Work on MVQSCSAYGCKNRYDKDKPVSFHKFPLTRPSLCKEWEAAVRRKNFKPTKYSSICSEHFTPDCFKRECNNKLLKENAVPTIFLCTEPHDKKEDLLEPQEQLPPPPLPPPVSQVDAAIGLLMPPLQTPVNLSVFIDHNYTVEDTMHQRKRIHQLEQQVEKLRKKLKTAQQRCRRQERQLEKLKEVVHFQKEKDDVSERGYVILPNDYFEIVEVPA [C133I] yielded a THAP1 transcriptional activity of 1.29.
Work on MVQSCSAYGCKNRYDKDKPVSFHKFPLTRPSLCKEWEAAVRRKNFKPTKYSSICSEHFTPDCFKRECNNKLLKENAVPTIFLCTEPHDKKEDLLEPQEQLPPPPLPPPVSQVDAAIGLLMPPLQTPVNLSVFDDHNYTVEDTMHQRKRIHQLEQQVEKLRKKLKTAQQRCRRQERQLEKLKEVVHFQKEKDDVSERGYVILPNDYFEIVEVPA [C133D] yielded a THAP1 transcriptional activity of 0.73.
MVQSCSAYGCKNRYDKDKPVSFHKFPLTRPSLCKEWEAAVRRKNFKPTKYSSICSEHFTPDCFKRECNNKLLKENAVPTIFLCTEPHDKKEDLLEPQEQLPPPPLPPPVSQVDAAIGLLMPPLQTPVNLSVFHDHNYTVEDTMHQRKRIHQLEQQVEKLRKKLKTAQQRCRRQERQLEKLKEVVHFQKEKDDVSERGYVILPNDYFEIVEVPA [C133H] was tested, and the THAP1 transcriptional activity was 2.5.
With MVQSCSAYGCKNRYDKDKPVSFHKFPLTRPSLCKEWEAAVRRKNFKPTKYSSICSEHFTPDCFKRECNNKLLKENAVPTIFLCTEPHDKKEDLLEPQEQLPPPPLPPPVSQVDAAIGLLMPPLQTPVNLSVFGDHNYTVEDTMHQRKRIHQLEQQVEKLRKKLKTAQQRCRRQERQLEKLKEVVHFQKEKDDVSERGYVILPNDYFEIVEVPA [C133G] the THAP1 transcriptional activity was 0.883.
Variant MVQSCSAYGCKNRYDKDKPVSFHKFPLTRPSLCKEWEAAVRRKNFKPTKYSSICSEHFTPDCFKRECNNKLLKENAVPTIFLCTEPHDKKEDLLEPQEQLPPPPLPPPVSQVDAAIGLLMPPLQTPVNLSVFADHNYTVEDTMHQRKRIHQLEQQVEKLRKKLKTAQQRCRRQERQLEKLKEVVHFQKEKDDVSERGYVILPNDYFEIVEVPA [C133A] has a THAP1 transcriptional activity of 0.667.
Variant MVQSCSAYGCKNRYDKDKPVSFHKFPLTRPSLCKEWEAAVRRKNFKPTKYSSICSEHFTPDCFKRECNNKLLKENAVPTIFLCTEPHDKKEDLLEPQEQLPPPPLPPPVSQVDAAIGLLMPPLQTPVNLSVWCDHNYTVEDTMHQRKRIHQLEQQVEKLRKKLKTAQQRCRRQERQLEKLKEVVHFQKEKDDVSERGYVILPNDYFEIVEVPA [F132W] has a THAP1 transcriptional activity of 0.329.
MVQSCSAYGCKNRYDKDKPVSFHKFPLTRPSLCKEWEAAVRRKNFKPTKYSSICSEHFTPDCFKRECNNKLLKENAVPTIFLCTEPHDKKEDLLEPQEQLPPPPLPPPVSQVDAAIGLLMPPLQTPVNLSVSCDHNYTVEDTMHQRKRIHQLEQQVEKLRKKLKTAQQRCRRQERQLEKLKEVVHFQKEKDDVSERGYVILPNDYFEIVEVPA [F132S] was tested, and the THAP1 transcriptional activity was 0.452.
For MVQSCSAYGCKNRYDKDKPVSFHKFPLTRPSLCKEWEAAVRRKNFKPTKYSSICSEHFTPDCFKRECNNKLLKENAVPTIFLCTEPHDKKEDLLEPQEQLPPPPLPPPVSQVDAAIGLLMPPLQTPVNLSVRCDHNYTVEDTMHQRKRIHQLEQQVEKLRKKLKTAQQRCRRQERQLEKLKEVVHFQKEKDDVSERGYVILPNDYFEIVEVPA [F132R], the THAP1 transcriptional activity was 0.942.
Work on MVQSCSAYGCKNRYDKDKPVSFHKFPLTRPSLCKEWEAAVRRKNFKPTKYSSICSEHFTPDCFKRECNNKLLKENAVPTIFLCTEPHDKKEDLLEPQEQLPPPPLPPPVSQVDAAIGLLMPPLQTPVNLSVTCDHNYTVEDTMHQRKRIHQLEQQVEKLRKKLKTAQQRCRRQERQLEKLKEVVHFQKEKDDVSERGYVILPNDYFEIVEVPA [F132T] yielded a THAP1 transcriptional activity of 0.436.
In the case of MVQSCSAYGCKNRYDKDKPVSFHKFPLTRPSLCKEWEAAVRRKNFKPTKYSSICSEHFTPDCFKRECNNKLLKENAVPTIFLCTEPHDKKEDLLEPQEQLPPPPLPPPVSQVDAAIGLLMPPLQTPVNLSVVCDHNYTVEDTMHQRKRIHQLEQQVEKLRKKLKTAQQRCRRQERQLEKLKEVVHFQKEKDDVSERGYVILPNDYFEIVEVPA [F132V], the THAP1 transcriptional activity is reported as 0.402.
With MVQSCSAYGCKNRYDKDKPVSFHKFPLTRPSLCKEWEAAVRRKNFKPTKYSSICSEHFTPDCFKRECNNKLLKENAVPTIFLCTEPHDKKEDLLEPQEQLPPPPLPPPVSQVDAAIGLLMPPLQTPVNLSVYCDHNYTVEDTMHQRKRIHQLEQQVEKLRKKLKTAQQRCRRQERQLEKLKEVVHFQKEKDDVSERGYVILPNDYFEIVEVPA [F132Y] the THAP1 transcriptional activity was 0.392.
